Substitutions are numbered along the chain they refer to. Names and notes keep the numbering of the source. Read-outs that look alike come from different tables or passages of the source.
Experiments:
[1] = CO association and dissociation kinetics of DevS proteins, stopped flow; type: binding, Mycobacterium tuberculosis; conditions: 4 °C; for Kd: read-out: CO Kd, from koff and kon; for CO koff / CO kon: stopped flow; for CO koff: displacement with air saturated buffer or NO solutions; for CO kon: phosphate buffer (50 mM) pH 7.5, 200 mM NaCl, 1 mM EDTA
[2] = Oxygen association rates of DevS proteins, laser flash photolysis; type: binding, Mycobacterium tuberculosis; conditions: pH 7.5 phosphate buffer (20 mM), 200 mM NaCl, 1 mM EDTA
DevS kinase = conditions: cited from earlier work
[3] = Autooxidation of oxy-ferrous DevS proteins to the ferric; type: physicochemical, Mycobacterium tuberculosis; conditions: for autooxidation rate k / autooxidation t1/2: 25 °C
[4] = Oxygen dissociation rates of DevS proteins, stopped flow; type: binding, Mycobacterium tuberculosis; conditions: read-out: O2 Kd; from koff and kon
[5] = cited from earlier work
[6] = cited from earlier work; remark: listed apart in the source
[7] = cited from earlier work; remark: listed apart in the source
[8] = ferrous unligated form (5c complex)
[9] = ligand binding: O2 (oxy ferrous 6c species)
[10] = phosphate buffer (50 mM), pH 7.5, 1 mM EDTA and 200 mM NaCl
[11] = CaCl2 0.1 mM, hepes buffer (20 mM), pH 7.5, Chelex 100
[12] = CuCl2 10 µM, hepes buffer (20 mM), pH 7.5, Chelex 100
[13] = FeCl3 0.1 mM (nominal), hepes buffer (20 mM), pH 7.5, Chelex 100
[14] = KCl 200 mM, hepes buffer (20 mM), pH 7.5, pretreated with Chelex 100
[15] = MgCl2 1 mM, hepes buffer (20 mM), pH 7.5, Chelex 100
[16] = NaCl 200 mM, hepes buffer (20 mM), pH 7.5, Chelex 100

B1: full-length Y171F DevS (protein, UniProt P9WGK3 1-578, looked up, variant Y171F)
chain: MTTGGLVDENDGAAMRPLRHTLSQLRLHELLVEVQDRVEQIVEGRDRLDGLVEAMLVVTAGLDLEATLRAIVHSATSLVDARYGAMEVHDRQHRVLHFVYEGIDEETVRRIGHLPKGLGVIGLLIEDPKPLRLDDVSAHPASIGFPPYHPPMRTFLGVPVRVRDESFGTLFLTDKTNGQPFSDDDEVLVQALAAAAGIAVANARLYQQAKARQSWIEATRDIATELLSGTEPATVFRLVAAEALKLTAADAALVAVPVDEDMPAADVGELLVIETVGSAVASIVGRTIPVAGAVLREVFVNGIPRRVDRVDLEGLDELADAGPALLLPLRARGTVAGVVVVLSQGGPGAFTDEQLEMMAAFADQAALAWQLATSQRRMRELDVLTDRDRIARDLHDHVIQRLFAIGLALQGAVPHERNPEVQQRLSDVVDDLQDVIQEIRTTIYDLHGASQGITRLRQRIDAAVAQFADSGLRTSVQFVGPLSVVDSALADQAEAVVREAVSNAVRHAKASTLTVRVKVDDDLCIEVTDNGRGLPDEFTGSGLTNLRQRAEQAGGEFTLASVPGASGTVLRWSAPLSQ
modifications: full-length
Kd [1]: 3.33 µM
CO koff [1]: 2.43 ± 0.15 ^b s^−1
CO kon [1]: 0.73 ± 0.071 ^b µM^−1s^−1
O2 kon [2]: 32.4 ^a µM^−1s^−1
kinase activity (DevS kinase; [8]): active
kinase activity (DevS kinase; [9]): inactive
autooxidation rate k [3, 10]: 0.012 h⁻¹
Kd [4]: 0.12 µM

B2: DevS: full length wild-type heme sensor kinase DevS of Mycobacterium tuberculosis (protein, UniProt P9WGK3 1-578, looked up)
chain: B1 chain with F171Y
modifications: full-length
Kd [1]: 8.29 µM
CO koff [1]: 2.57 ± 0.40 ^b s^−1
CO kon [1]: 0.31 ± 0.031 ^b µM^−1s^−1
O2 kon [2]: 11.8 ^a µM^−1s^−1
kinase activity (DevS kinase; [8]): active
kinase activity (DevS kinase; ferrous unligated form (5c complex), listed as wild-type DevS): intermediate kinase activity
kinase activity (DevS kinase; ligand binding: CO and NO): further activates the kinase
kinase activity (DevS kinase; [9]): inactive
kinase activity (DevS kinase; ligand binding: O2 (oxy ferrous 6c species), listed as wild-type DevS): completely inactivates it
autooxidation half life ([3]; 0.1 mM Cu2+): less than 2 min
autooxidation rate k [3, 11]: 0.0049 h⁻¹
autooxidation t1/2 [3, 11]: 170 h
decrease of autooxidation rate on tenfold decrease in Cu2+ concentration ([3]; Cu2+ from 100 to 10 µM): over 300 fold
autooxidation rate k [3, 12]: 0.062 h⁻¹
autooxidation t1/2 [3, 12]: 11 h
autooxidation rate k ([3]; CuCl2 0.1 mM, hepes buffer (20 mM), pH 7.5, Chelex 100): 25 h⁻¹
autooxidation rate k [3, 13]: 0.09 h⁻¹
autooxidation t1/2 [3, 13]: 7.8 h
autooxidation rate k [3, 14]: 0.013 h⁻¹
autooxidation t1/2 [3, 14]: 78 h
autooxidation rate k [3, 15]: 0.012 h⁻¹
autooxidation t1/2 [3, 15]: 59 h
autooxidation rate k [3, 16]: 0.010 h⁻¹
autooxidation t1/2 [3, 16]: 96 h
autooxidation rate k ([3]; hepes 20 mM, pH 7.5, pretreated with Chelex 100, no added cation): 0.0033 h⁻¹
autooxidation half-lives ([3]; in the absence of Fe3+ and Cu2+): greater than one day
autooxidation rates ([3]; in the presence of K+, Na+, Mg2+, and Ca2+): 0.005 to 0.02 h⁻¹
autooxidation rate k [3, 10]: 0.019 h⁻¹
autooxidation t1/2 [3, 10]: > 30 h
autooxidation t1/2 ([3]; phosphate buffer (50 mM), pH 7.5, 1 mM EDTA and 200 mM NaCl, listed as Full length wild-type DevS): 73.6 h
Kd [4]: 0.58 µM
autooxidation half life ([5]; 37 °C, full length DevS from a slow expressing vector): 4 h

B3: BjFixL: FixL gas sensor kinase (literature comparator) (protein, UniProt P23222 1-505, looked up)
Sensor protein FixL: MAPTRVTHPPDDGRGEHFRVRIEGFGVGTWDLDLKTWALDWSDTARTLLGIGQDQPASYDLFLSRLEPDDRERVESAIKRVSERGGGFDVSFRVAGTSNAGQWIRARAGLIRDEAGTARHLSGIFLDIDEEKQVEGALRTRETHLRSILHTIPDAMIVIDGHGIIQLFSTAAERLFGWSELEAIGQNVNILMPEPDRSRHDSYISRYRTTSDPHIIGIGRIVTGKRRDGTTFPMHLSIGEMQSGGEPYFTGFVRDLTEHQQTQARLQELQSELVHVSRLSAMGEMASALAHELNQPLAAISNYMKGSRRLLAGSSDPNTPKVESALDRAAEQALRAGQIIRRLRDFVARGESEKRVESLSKLIEEAGALGLAGAREQNVQLRFSLDPGADLVLADRVQIQQVLVNLFRNALEAMAQSQRRELVVTNTPAADDMIEVEVSDTGSGFQDDVIPNLFQTFFTTKDTGMGVGLSISRSIIEAHGGRMWAESNASGGATFRFTLPAADEN
O2 koff [6]: 20 s⁻¹
O2 kon [6]: 145000 M⁻¹ s⁻¹
Kd ([6]; read-out: O2 Kd): 138 µM
CO koff [7]: 0.045 s⁻¹
CO kon [7]: 5000 M⁻¹ s⁻¹
Kd ([7]; read-out: CO Kd): 9 µM
autooxidation rate k ([5]; pH7, 37 °C): 2.8 h⁻¹
autooxidation t1/2 ([5]; pH7, 37 °C): 0.25 h

B4: Bovine Mb: bovine myoglobin (protein, UniProt P02192 2-154, looked up)
Myoglobin: GLSDGEWQLVLNAWGKVEADVAGHGQEVLIRLFTGHPETLEKFDKFKHLKTEAEMKASEDLKKHGNTVLTALGGILKKKGHHEAEVKHLAESHANKHKIPVKYLEFISDAIIHVLHAKHPSDFGADAQAAMSKALELFRNDMAAQYKVLGFHG
autooxidation t1/2 ([5]; pH 9, 25 °C): 63 h

B5: EcDos: Escherichia coli Dos, heme-regulated phosphodiesterase (protein, UniProt P76129 1-799, looked up)
Oxygen sensor protein DosP: MKLTDADNAADGIFFPALEQNMMGAVLINENDEVMFFNPAAEKLWGYKREEVIGNNIDMLIPRDLRPAHPEYIRHNREGGKARVEGMSRELQLEKKDGSKIWTRFALSKVSAEGKVYYLALVRDASVEMAQKEQTRQLIIAVDHLDRPVIVLDPERHIVQCNRAFTEMFGYCISEASGMQPDTLLNIPEFPADNRIRLQQLLWKTARDQDEFLLLTRTGEKIWIKASISPVYDVLAHLQNLVMTFSDITEERQIRQLEGNILAAMCSSPPFHEMGEIICRNIESVLNESHVSLFALRNGMPIHWASSSHGAEIQNAQSWSATIRQRDGAPAGILQIKTSSGAETSAFIERVADISQHMAALALEQEKSRQHIEQLIQFDPMTGLPNRNNLHNYLDDLVDKAVSPVVYLIGVDHIQDVIDSLGYAWADQALLEVVNRFREKLKPDQYLCRIEGTQFVLVSLENDVSNITQIADELRNVVSKPIMIDDKPFPLTLSIGISYDLGKNRDYLLSTAHNAMDYIRKNGGNGWQFFSPAMNEMVKERLVLGAALKEAISNNQLKLVYQPQIFAETGELYGIEALARWHDPLHGHVPPSRFIPLAEEIGEIENIGRWVIAEACRQLAEWRSQNIHIPALSVNLSALHFRSNQLPNQVSDAMHAWGIDGHQLTVEITESMMMEHDTEIFKRIQILRDMGVGLSVDDFGTGFSGLSRLVSLPVTEIKIDKSFVDRCLTEKRILALLEAITSIGQSLNLTVVAEGVETKEQFEMLRKIHCRVIQGYFFSRPLPAEEIPGWMSSVLPLKI
autooxidation rate k [5]: 0.7 h⁻¹
autooxidation t1/2 [5]: 1 h

Reference: paper PMC2756985 (Biochemistry, 2009)
